Results taken from US20140363833.

B1: FVIIa (Haematologic Technologies) (protein)
chain: ANAFLEELRPGSLERECKEEQCSFEEAREIFKDAERTKLFWISYSDGDQCASSPCQNGGSCKDQLQSYICFCLPAFEGRNCETHKDDQLICVNENGGCEQYCSDHTGTKRSCRCHEGYSLLADGVSCTPTVEYPCGKIPILEKRNASKPQGRIVGGKVCPKGECPWQVLLLVNGAQLCGGTLINTIWVVSAAHCFDKIKNWRNLIAVLGEHDLSEHDGDEQSRRVAQVIIPSTYVPGTTNHDIALLRLHQPVVLTDHVVPLCLPERTFSERTLAFVRFSLVSGWGQLLDRGATALELMVLNVPRLMTQDCLQQSRKVGDSPNITEYMFCAGYSDGSKDSCKGDSGGPHATHYRGTWYLTGIVSWGQGCATVGHFGVYTRVSQYIEWLQKLMRSEPRPGVLLRAPFP

What was measured:
[1] = tested on: T1, fluorophore-labeled thrombin substrate (fPR-x-S extended with glycine spacers and a C-terminal cysteine) on nanoworms
T1 sequence: GGFPRSGGGC

[2] = tested on: T2, D-isomer of the MMP9 substrate PLGVRGK on nanoworms
T2 sequence: PLGVRGK

[3] = tested on: T3, D-stereoisomer of the thrombin substrate PLGLRSW on nanoworms
T3 sequence: PLGLRSW

[4] = tested on: T4, fluorescein-labeled thrombin-cleavable substrate PLGLRSW on nanoworms
T4 sequence: PLGLRSW

[5] = target: T5, fluorophore-labeled thrombin substrate (fPR-x-S extended with glycine spacers and a C-terminal cysteine) on nanoworms (not fully specified)
T5 chain: GGFPRSGGGC

Row | Molecule | sample fluorescence (fluorogenic NW protease assay) [1] | further results
1 | FIXa (Haematologic Technologies) | negligible proteolysis was observed from the panel of non-cognate proteases | –
2 | FXIa (Haematologic Technologies) | negligible proteolysis was observed from the panel of non-cognate proteases | –
3 | FXa (Haematologic Technologies) | negligible proteolysis was observed from the panel of non-cognate proteases | –
4 | activated protein C (Haematologic Technologies) | negligible proteolysis was observed from the panel of non-cognate proteases | –
5 | recombinant MMP9 (R&D Systems) | – | sample fluorescence (fluorogenic NW protease assay) [2]: no activity when the broad-spectrum MMP inhibitor Marimastat or D-isomer substrates were used
6 | recombinant thrombin (Haematologic Technologies) | – | sample fluorescence (fluorogenic NW protease assay) [3]: No increase in fluorescence was observed in the presence of Argatroban, a direct thrombin inhibitor, or when the substrate was synthesized with protease-resistant D-stereoisomers; sample fluorescence (fluorogenic NW protease assay) [4]: observed a rapid increase in sample fluorescence as cleaved peptide fragments released into solution fluoresced freely
7 | B1 | – | sample fluorescence (fluorogenic NW protease assay) [5]: negligible proteolysis was observed from the panel of non-cognate proteases
